Measured values as given in patent US20140179604A1 (U S A REPRESENTED BY THE DEPARTMENT OF VETERANS AFFAIRS, published 2014).
One block for each binder: values may come before it. Non-standard residues stand in square brackets, D forms with d. No end group written: not given here. *: point of attachment. Phe(F5) = N[C@@H](Cc1c(F)c(F)c(F)c(F)c1F)C(=O)O; Desaminotyrosyl = O=C(CCc1ccc(O)cc1)*; NMeY = CN[C@@H](Cc1ccc(O)cc1)C(=O)O; Agmatine = N=C(N)NCCCCN*; NMeA = CN[C@@H](C)C(=O)O; Nle = CCCC[C@H](N)C(=O)O; Orn = NCCC[C@H](N)C(=O)O; Abu = CC[C@H](N)C(=O)O

Key:
[1] = target: T1, GHRH receptor (membrane receptors of human anterior pituitary cells) (human, UniProt Q02643 23-423); assay: competition with 125I-JV-1-42, human pituitary membranes
T1 construct: whole, on cells; Native receptor in a membrane fraction of purchased normal human pituitaries, not intact cells; also called hGHRH receptor; human pituitary membrane homogenates
T1 sequence (looked up): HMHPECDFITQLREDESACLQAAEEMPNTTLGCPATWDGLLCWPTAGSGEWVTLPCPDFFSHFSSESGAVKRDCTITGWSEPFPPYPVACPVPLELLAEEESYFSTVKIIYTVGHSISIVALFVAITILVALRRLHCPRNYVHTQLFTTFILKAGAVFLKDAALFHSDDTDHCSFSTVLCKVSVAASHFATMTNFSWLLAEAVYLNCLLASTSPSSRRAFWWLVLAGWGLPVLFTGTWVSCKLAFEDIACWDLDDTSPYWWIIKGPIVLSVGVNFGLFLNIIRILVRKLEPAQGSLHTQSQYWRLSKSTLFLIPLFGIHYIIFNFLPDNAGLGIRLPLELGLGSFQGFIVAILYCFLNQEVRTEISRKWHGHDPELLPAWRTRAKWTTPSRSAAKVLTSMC
From the text: Normal human pituitaries were purchased from the National Hormone and Peptide Program (A. F. Parlow, Los Angeles, County Harbor-UCLA Medical Center, Torrance, Calif.).

[2] = target: T1, GHRH receptor (membrane receptors of …); assay: competition with 125I-[His1,Nle27]hGHRH(1-32)NH2, human pituitary membranes

- IC50 [1]: 1.7 nM
- Relative affinity (Binding potency) vs JI-38 [1]: 2.56 JI-38 = 1
- IC50 [2]: 1.09 nM
- Relative affinity (Binding potency) compared to JI-38 [2]: 2.51 JI-38 = 1
- Relative affinity (Binding potency) compared to hGHRH(1-29) [2]: 7.01 hGHRH(1-29)NH2 = 1
Binder: [NMeY][dA]DAIFTNSYR[Orn]VL[Abu]QLSAR[Orn]LLQDI[Nle]D[Agmatine] (also called Peptide 20367) [P-20367 [N-Me-Tyr^1, D-Ala^2, Orn^12, Abu^15, Orn^21, Nle^27, Asp^28, Agm^29]hGHRH(1-29)NH2]

- IC50 [1]: 3.05 nM
- Relative affinity (Binding potency) vs JI-38 [1]: 1.43 JI-38 = 1
Binder: [NMeY][dA]DAI[Phe(F5)]TNSYR[Orn]VL[Abu]QLSAR[Orn]LLQDI[Nle]D[Agmatine] (also called Peptide 20359) [P-20359 [N-Me-Tyr^1, D-Ala^2, Fpa5^6, Orn^12, Abu^15, Orn^21, Nle^27, Asp^28, Agm^29]hGHRH(1-29)NH2]

More lines, now with the values behind:

B1: P-20357 [Dat^1, D-Ala^2, N-Me-Ala^8, Orn^12, Abu^15, Orn^21, Nle^27, Asp^28, Agm^29]hGHRH(1-29)NH2 (peptide)
peptide: [Desaminotyrosyl][dA]DAIFT[NMeA]SYR[Orn]VL[Abu]QLSAR[Orn]LLQDI[Nle]D[Agmatine]
SMILES: CCCC[C@H](NC(=O)[C@@H](NC(=O)[C@H](CC(=O)O)NC(=O)[C@H](CCC(N)=O)NC(=O)[C@H](CC(C)C)NC(=O)[C@H](CC(C)C)NC(=O)[C@H](CCCN)NC(=O)[C@H](CCCNC(=N)N)NC(=O)[C@H](C)NC(=O)[C@H](CO)NC(=O)[C@H](CC(C)C)NC(=O)[C@H](CCC(N)=O)NC(=O)[C@H](CC)NC(=O)[C@H](CC(C)C)NC(=O)[C@@H](NC(=O)[C@H](CCCN)NC(=O)[C@H](CCCNC(=N)N)NC(=O)[C@H](Cc1ccc(O)cc1)NC(=O)[C@H](CO)NC(=O)[C@H](C)N(C)C(=O)[C@@H](NC(=O)[C@H](Cc1ccccc1)NC(=O)[C@@H](NC(=O)[C@H](C)NC(=O)[C@H](CC(=O)O)NC(=O)[C@@H](C)NC(=O)CCc1ccc(O)cc1)[C@@H](C)CC)[C@@H](C)O)C(C)C)[C@@H](C)CC)C(=O)N[C@@H](CC(=O)O)C(=O)NCCCCNC(=N)N
notes: also called Peptide 20357
- IC50 [1]: 0.86 nM
- Relative affinity (Binding potency) vs JI-38 [1]: 5.06 JI-38 = 1

Binder: [NMeY][dA]DAIFTNSYR[Orn]VL[Abu]QLSAR[Orn]LLQDI[Nle]DR-NHEt (also called MR-421; Peptide 28421) [P-28421 [N-Me-Tyr^1, D-Ala^2, Orn^12, Abu^15, Orn^21, Nle^27, Asp^28]hGHRH(1-29)NH-CH2-CH3]
- IC50 [1]: 1.47 nM
- Relative affinity (Binding potency) vs JI-38 [1]: 2.96 JI-38 = 1
- IC50 [2]: 3.05 nM
- Relative affinity (Binding potency) compared to JI-38 [2]: 0.9 JI-38 = 1
- Relative affinity (Binding potency) compared to hGHRH(1-29) [2]: 2.5 hGHRH(1-29)NH2 = 1

B2: P-27400 [Dat^1, D-Ala^2, Orn^12, Abu^15, Orn^21, Nle^27, Asp^28]hGHRH(1-29)NH-CH3 (peptide)
peptide: [Desaminotyrosyl][dA]DAIFTNSYR[Orn]VL[Abu]QLSAR[Orn]LLQDI[Nle]DR-NHMe
SMILES: CCCC[C@H](NC(=O)[C@@H](NC(=O)[C@H](CC(=O)O)NC(=O)[C@H](CCC(N)=O)NC(=O)[C@H](CC(C)C)NC(=O)[C@H](CC(C)C)NC(=O)[C@H](CCCN)NC(=O)[C@H](CCCNC(=N)N)NC(=O)[C@H](C)NC(=O)[C@H](CO)NC(=O)[C@H](CC(C)C)NC(=O)[C@H](CCC(N)=O)NC(=O)[C@H](CC)NC(=O)[C@H](CC(C)C)NC(=O)[C@@H](NC(=O)[C@H](CCCN)NC(=O)[C@H](CCCNC(=N)N)NC(=O)[C@H](Cc1ccc(O)cc1)NC(=O)[C@H](CO)NC(=O)[C@H](CC(N)=O)NC(=O)[C@@H](NC(=O)[C@H](Cc1ccccc1)NC(=O)[C@@H](NC(=O)[C@H](C)NC(=O)[C@H](CC(=O)O)NC(=O)[C@@H](C)NC(=O)CCc1ccc(O)cc1)[C@@H](C)CC)[C@@H](C)O)C(C)C)[C@@H](C)CC)C(=O)N[C@@H](CC(=O)O)C(=O)N[C@@H](CCCNC(=N)N)C(=O)NC
- IC50 [1]: 3.35 nM
- Relative affinity (Binding potency) vs JI-38 [1]: 1.3 JI-38 = 1

Binder: [NMeY][dA]DAIFTNSYR[Orn]VL[Abu]QLSAR[Orn]LLQDI[Nle]DR-NHMe (also called MR-409; Peptide 27409) [P-27409 [N-Me-Tyr^1, D-Ala^2, Orn^12, Abu^15, Orn^21, Nle^27, Asp^28]hGHRH(1-29)NH-CH3]
- IC50 [1]: 1.06 nM
- Relative affinity (Binding potency) vs JI-38 [1]: 4.1 JI-38 = 1
- IC50 [2]: 1.01 nM
- Relative affinity (Binding potency) compared to JI-38 [2]: 2.71 JI-38 = 1
- Relative affinity (Binding potency) compared to hGHRH(1-29) [2]: 7.57 hGHRH(1-29)NH2 = 1
